Assay [1] concerns the target GST-DR4 (residues 269-468) (UniProt O00220). In words: GST pull-down on glutathione-Sepharose, immunoblot against input lane.
Assay [2] has the same target. Description: Scatchard analysis: DAP3-His6 at 0.1-1 µM with 1.0 µg GST-DR4 on glutathione-Sepharose, free and bound DAP3 by immunoblot densitometry.

Sequence of GST-DR4 (residues 269-468) (O00220 269-468, form in doubt): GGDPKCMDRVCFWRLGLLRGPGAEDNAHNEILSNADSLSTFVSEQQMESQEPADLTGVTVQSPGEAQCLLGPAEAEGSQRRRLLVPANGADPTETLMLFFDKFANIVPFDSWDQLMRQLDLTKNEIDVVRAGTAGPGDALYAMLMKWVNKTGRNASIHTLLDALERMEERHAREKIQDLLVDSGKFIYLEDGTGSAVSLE

In assay [1], DAP3-His6 yielded a percent of input bound of 10 to 20%. This substance gave a Kd in assay [2] of 16 nM.

These data come from patent US20030049702A1.
